In paper PMC314469, “Protein Interaction Networks by Proteome Peptide Scanning” (PLoS Biology, 2004):

Molecular target: Sho1 SH3 (SHO1_YEAST), P40073
Assay: SPOT array

Sequence of Sho1 SH3 (SHO1_YEAST), P40073 (P40073 295-366): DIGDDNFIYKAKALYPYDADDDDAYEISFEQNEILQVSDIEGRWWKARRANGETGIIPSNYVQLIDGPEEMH

Row | Binder | normalised SPOT signal, Boehringer light units (BLU); mean over the file's lines of this peptide
1 | ATVPSAPYRKQIIS [11-24 nuclear pore protein] | 122
2 | ATTPAIPTKSDEAE | 169
3 | AAWPLDPARERWTR [269-282 Hypothetical ORF] | 137
4 | APAPLDPFKTGGNN [849-862 " contains 3 SH3 domains, interacts with Bee1p"] | 681
5 | DERPFRPKRTSRSA [149-162 Hypothetical ORF] | 183
6 | DLQPLEPKKAAAST [805-818 " contains 3 SH3 domains, interacts with Bee1p"] | 220
7 | APTPPAPSRSEKLH [727-740 Hypothetical ORF] | 258
8 | AGSPIRPYKQRYLL [526-539 heat shock transcription factor] | 86.2
9 | DFTPVEPSKMREYI [629-642 MCM3 protein homolog (S. cerevisiae)] | 91
10 | SQRPGSPGRYKLVR [174-187 gamma subunit of translational initiation factor eIF-2] | 178
11 | DELPSPPLRMVHID [237-250 Hypothetical ORF] | 224
12 | YPSPAQPPKSPLLN [448-461 " involved in bud formation, has SH3 domain"] | 128
13 | YKIPVVPPRETYFA [507-520 involved in cell wall biogenesis] | 195
14 | AFVPTNPWRSSMSL [315-328 invertase (sucrose hydrolyzing enzyme)] | 620
15 | YTLPLLPGKGGFRI [228-241 Hypothetical ORF] | 509
16 | SREPEVPQRLLTLI [250-263 Hypothetical ORF] | 105
17 | AKSPLLPFKLLSDR [330-343 Hypothetical ORF] | 160
18 | AMPPTLPHRDWKDY [84-97 component of peroxisomal import machinery] | 321
19 | DESPIDPSKAPKVP [350-363 Hypothetical ORF] | 96.8
20 | SILPAFPSKSSNEQ | 73.6
21 | AAQPPLPSRNVASG [446-459 Actin binding protein] | 81.6
22 | ALKPKTPSKAPRKR [65-78 origin recognition complex subunit 2] | 830
23 | YSNPQTPLRSLAGL [1404-1417 Type 1 membrane protein with EF hand motif] | 217
24 | DHKPENPIRTFKDL [90-103 uridine permease] | 168
25 | DDTPSIPSKISSKS [1313-1326 component of the mitotic spindle] | 207
26 | SGFPLLPSKRGVTA [165-178 Hypothetical ORF] | 644

The next lines start with the values.

Row | normalised SPOT signal, Boehringer light units (BLU); mean over the file's lines of this peptide | Binder
27 | 125 | AIEPGVPSRYSDET [91-104 Hypothetical ORF]
28 | 401 | ATRPSSPMRHKSIS [585-598 protein kinase domain]
29 | 118 | ARDPILPYRLVKDR [345-358 Product of gene unknown]
30 | 129 | ALVPFAPFKLLKDR [340-353 Triacetylfusarinine C transporter]
31 | 37.1 | DGRPHSPLRARSAT [51-64 Involved in protecting the cell against bleomycin damage]
32 | 215 | ASLPVGPRKNGMNV [26-39 Hypothetical ORF]
33 | 453 | YSLPMHPGRWWVHT [222-235 " 2,3-oxidosqualene-lanosterol cyclase"]
34 | 103 | AKQPKEPKKRTTRR [7-20 11-kDa nonhistone chromosomal protein]
35 | 477 | DRPPDVPRKIIVGR [301-314 ubiquitin carboxyl-terminal hydrolase]
36 | 196 | YQYPQTPSKVDISI [243-256 Product of gene unknown]
37 | 176 | DQAPSLPPKPNTQL [158-171 homologous to mouse and human Tsg101 tumor susceptibility genes]
38 | 65.8 | DLPPKFPEKPVHLV [186-199 Hypothetical ORF]
39 | 144 | DPLPYSPLKLYDQK [382-395 Transcription factor (fork head domain)]
40 | 165 | YMQPIIPGKTESFE [151-164 similar to ubiquitin activating enzyme (E1)]
41 | 152 | APLPPQPRKHDKTP [587-600 Protein Kinase C]
42 | 83.2 | AVDPENPKKLASKF [384-397 Hypothetical ORF]
